Consider two molecules from patent publication US8470556B2, “Nucleic acids that encode antigen binding proteins that bind PAR-2” (Amgen Inc., priority 2007, dated 2013).

Broadly, the Kd is the constant that tells how readily two partners part at equilibrium. Higher therefore signals a looser complex.

The subject of data set [1] is Lewis rats. Nature of the data set: Carrageenan paw edema in Lewis rat (plethysmography). The data set is classed as in vivo. As to conditions: IP 18 h prior to carrageenan, 1.5 mg/rat. The protocol:
(§1) This example describes the effects of PAR-2 antibodies on paw edema in an acute AIA model substantially as described previously. Briefly, 6-8 week old Sprague Dawley or Lewis rats (Charles River Laboratories, Wilmington, Mass.) were injected subcutaneously (SC) in the plantar region of the hind paw with 1% lambda carrageenan in one hind paw and control (saline) in the other. Blocking PAR-2 monoclonal antibody (1A1) or control (positive or negative control; see footnotes to Table 4) was administered intraperitoneally (IP) eighteen hours prior to adjuvant injection at 1.5 mg/rat (approximately 8-10 mg/kg), swelling was then measured by plethysomgraphy at selected time points. Data were expressed as volume of water in milliliters (mL) displaced per paw versus baseline measurements for that paw.

The test system of another data set is rats. Nature of the data set: Paw edema study, further experiments (IP versus SC, dose dependence). The data set is classed as in vivo, rat.
A short description of data set [2]: Pharmacokinetic analysis in the paw edema study. The conditions noted are these: SC administered. Format: in vivo, rat.
For a further data set, the system named is Sprague Dawley rats. Nature of the data set: Carrageenan paw edema in Sprague Dawley rat (plethysmography). As to conditions: 0 Hr, antibodies IP 1.5 mg/rat, indomethacin 5 mg/kg. Format: in vivo. As to the method:
as §1

Data set [3] addresses T1, N-terminal PAR-2/Fc (full length and truncated) (Homo sapiens, UniProt P55085).
T1 construct: made in house; host or cells: CHO cells (10% FCS for uncleaved; serum-free for clipped)
Nature of the data set: Western blot, binding to uncleaved versus clipped N-terminal PAR-2/Fc. As to conditions: upstream binder binds only full-length PAR-2/Fc. The text has this: N-terminal PAR-2/Fc polypeptide (SEQ ID NO:6) is expressed in suitable mammalian cells such as CHO cells. Expression supernatant from CHO expression cells cultured in serum-free media contain a CHO cell trypsin-like serine protease that cleaves PAR-2/Fc at the activation Arg-Ser bond, generating the “clipped” version of the PAR-2/Fc polypeptide. CHO expression cells cultured in 10% fetal calf serum (which contains normal levels of plasma proteinase inhibitors at concentrations far in excess of the concentration of the CHO cell trypsin-like serine protease) express uncleaved N-terminal PAR-2/Fc in culture supernatants. Both clipped and uncleaved proteins are purified using methods that are suitable for isolation and purification of proteins comprising an Fc regions (for example, using a MabSelect™ resin systems, from GE Healthcare, Piscataway, N.J.)). The resultant purified Fc-constructs are analyzed by amino terminal sequence analysis (Edman degradation), size exclusion chromatrography, absorbance spectral scan, and mass spectroscopy, as needed.
To analyze binding to uncleaved versus cleaved PAR-2, various amounts of purified uncleaved and clipped N-terminal PAR2-Fc are subjected to SDS-PAGE using 8-16% polyacrylamide gradient gels (Novex gels, Invitrogen Life Technologies) in a Tris-Glycine buffer system. Gel lanes containing See Blue standards (Novex, Invitrogen Life Technologies) for molecular weight identification are also included. Following electrophoresis, proteins are transferred from gels onto nitrocellulose membranes using a Novex XCell II Blot Module (Invitrogen Life Technologies). Membranes are blocked with 1:1, Odyssey blocking buffer, OBB, (LI-COR Biosciences):TBS (Tris Buffer Saline) overnight at 4 C with shaking. Antibodies to be analyzed are diluted in 1:1 OBB:TBS at a desired final concentration for 1 hr at room temperature. Membranes are washed extensively with 0.1% Tween 20 in TBS (3-4 changes of 100 ml over ˜1 hr). Membranes are then exposed to the appropriate secondary antibody-Alexa680 (Molecular Probes, Invitrogen Life Technologies) conjugate (goat anti-rabbit IgG, or goat anti-mouse IgG) diluted 1:5000 in 1:1 (OBB:TBS) for 1 hr at room temperature. Membranes are washed as described above, and if desired, analyzed using a LI-COR Odyssey Infrared Imaging System (LI-COR Biosciences).
Several PAR-2 antibodies were tested in different assay formats; Table 2 summarizes the results. IC50 values were determined in a FLIPR assay for Ca2+ mobilization described previously; binding to the upstream region of the cleavage site versus the downstream region of the cleavage site was determined using the Western blot assay described previously.
For orientation: In western blotting, separated proteins are transferred to a membrane and probed.

For data set [4], the system named is Lewis rats. Nature of the data set: Acute adjuvant-induced arthritis (C/K) model, knee joint thickness. As to conditions: Lewis rat, group mean ± SEM. The data set is classed as in vivo. The protocol: This example describes acute and chronic models of arthritis. In both models, animals are anesthetized, for example by Ketamine/Xylazine mixture (mouse mix or rat mix, respectively) or isoflurane for all intraarticular (IA), periarticular (PA) injections or intradermal (ID) injections.
Joint injections, IA or PA, are targeted at either knees or hind limb paws. PA injections are equally divided across four sites surrounding the joint of interest. Paw injections are administered ID into the plantar area of the hind paw. To serve as an internal control, one knee or hind-limb paw is injected with vehicle alone or sterile PBS. Preparation of the injection area includes shaving the joint area after animals are anesthetized, and scrubbing with an iodine solution followed by an alcohol disinfectant. All articular injections are given with a 30-gauge needle or equivalent, and when needed by a gastight (i.e., Hamilton) syringe, for small injection volumes (i.e. 10 microL).
For induction of acute AIA (aAIA), animals are injected on day zero (D0) with 1-4% lambda-carrageenan and 1-4% kaolin (C/K) by IA injection in saline. Concentrations of both compounds are dependent on intended disease severity. Total injection volumes for the inducing agent are between 10-20 microL for mice and 60-80 microL for rat. Both concentration and injection volume are consistent with published methodologies (J Clin Invest. 2003; 111(1):35-41, and J Pharmacol Exp Ther. 2006; 316(3):1017-24). Alternatively, specific PAR-2 peptide agonists, or other activators of inflammation (such as trypsin, or human beta-tryptase [J Clin Invest. 2003; 111(1):35-41, J Pharmacol Exp Ther. 2006; 316(3):1017-24, J Pharmacol Sci. 2005 97(1):38-42, and Br J Pharmacol. 1999 127(5):1083-90]) or the equivalent, may be used. Concentrations used are selected for intended disease severity, and total injection volumes are appropriate to the animal being injected.
For both acute and chronic AIA studies, caliper measurements of joint diameter are taken of all joints of interest prior to any injection. Tracking of disease may include caliper measurements of joint diameter as well as flexible tape measurements of joint circumference, and visual scoring. Alternative methods (i.e., use of a plethysmometer) may also be used. Severity of cAIA is scored by one or both of the criteria shown below:
In this manner, 6-8 week old Lewis rats were injected with C/K plus treatment (or control) in the left knee, and negative control in each right knee, as for the acute model. Joint thickness was measured at set time points after treatment, using an average of three caliper readings. The change in thickness of the left knee as compared to the right knee was expressed as percent change, and is shown in Table 3 below.

The target of data set [5] is T2, cell surface expressed human PAR-2 (Homo sapiens, UniProt P55085).
T2 construct: expressed in transfected cells; host or cells: CHO cells
T2 sequence (P55085 26-397): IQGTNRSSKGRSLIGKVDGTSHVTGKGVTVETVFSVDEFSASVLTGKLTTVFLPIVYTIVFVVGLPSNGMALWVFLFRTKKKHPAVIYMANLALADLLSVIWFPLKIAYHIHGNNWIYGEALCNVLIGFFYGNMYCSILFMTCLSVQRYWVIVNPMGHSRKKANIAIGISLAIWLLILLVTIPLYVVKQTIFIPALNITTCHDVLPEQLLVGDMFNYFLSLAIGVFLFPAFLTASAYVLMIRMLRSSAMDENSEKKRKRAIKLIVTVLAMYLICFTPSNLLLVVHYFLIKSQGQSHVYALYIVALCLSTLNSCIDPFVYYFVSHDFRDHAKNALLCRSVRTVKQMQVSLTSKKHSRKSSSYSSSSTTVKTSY
Nature of the data set: KinExA binding to cell surface expressed PAR-2. As to conditions: initial analysis, 95% confidence interval of 1.36 to 5.47 nM, N=2 experiments. The text has this:
This example describes the analysis of the binding properties of PAR-2 antigen-binding proteins to cell surface expressed PAR-2 utilizing a Kinetic Exclusion Assay which measures binding events in solution phase and can be used to calculate KD, Kon and Koff (KinExA®; Sapidyne Instruments, Boise, Id.), substantially as described previously by Xie et. al. J. Imm, Methods 304:1 (2005) and Rathanaswami et. al. Anal. Biochem. 373:52 (2008). Briefly, serial dilutions of cells expressing human PAR-2 (for example, CHO transfectants expressing human PAR-2 at the cell surface, obtainable by transfecting CHO cells with human full length PAR-2 cDNA encoding a polypeptide of SEQ ID NO:2) and control cells (i.e., non-transfected CHO cells) in a modified DMEM medium (phenol red free containing 10% heat inactivated FBS, 0.1 mM MEM non-essential amino acids, 1 mM sodium pyruvate, penicillin-streptomycin-glutamine, and 0.025% (w/w) sodium azide) are incubated with set amounts of antibody for 24 to 36 hours at 4 C with rotation. […] The free mAb is measured by KinExA® using the appropriate capture beads and Cy5-conjugated anti-human secondary antibodies, as described by Rathanaswami et al. Biochem Biophys Research Commun: 1004 (2005). […]
The KD of certain PAR-2 antibodies was determined in this manner.
(Kinetic exclusion samples the free partner from a solution-phase mixture.)

T1 sequence (P55085 with tags, fused parts or gaps limits assumed): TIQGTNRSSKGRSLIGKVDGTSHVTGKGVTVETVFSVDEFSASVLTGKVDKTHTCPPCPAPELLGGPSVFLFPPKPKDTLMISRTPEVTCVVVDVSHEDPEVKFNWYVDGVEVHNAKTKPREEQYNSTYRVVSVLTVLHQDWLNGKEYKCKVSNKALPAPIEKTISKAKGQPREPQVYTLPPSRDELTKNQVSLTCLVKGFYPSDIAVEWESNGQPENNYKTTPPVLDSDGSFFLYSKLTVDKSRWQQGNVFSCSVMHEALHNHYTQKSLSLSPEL

B1: 1A1: anti-PAR-2 monoclonal antibody, blocking; heavy SEQ ID NO: 9, light SEQ ID NO: 11 (antibody, listed as Homo sapiens, V domains shown)
VH: EVQLVQSGAEVKKPGESLKISCKGSGYNFISHWIGWVRQMPGKGLEWMGMIYPGDSDTRYSPSFQGQVTISADKSINTAYLQWRSLKASDTAMYFCARHGGITGTTFYYDFGMDVWGQGTTVTVSS
VL: SYELTQPPSVSVSPGQTARITCSGDALPKQYASWYQQKPGQAPLLVIYRDSERPSGLPERFSGSSSGTTVTLTISGVQAEDEADYYCQSADSGGSYVFGTGTKVTVL
With B1, the “Paw Edema, volume of water displaced per paw versus baseline” value in the data set with Lewis rats [1] (0 Hr) stood at 0.00 ± 0.00 mL; in the data set on Lewis rats [1] (2 Hr), 0.15 ± 0.06 mL; in the data set on Sprague Dawley rats it was 0.00 ± 0.00 mL. The “effect on paw swelling” value is reported as “significantly decreased paw swelling” in the data set on rats (administered IP) and “not when administered SC” in the data set on rats (administered SC). For the same molecule, in the data set with rats (administered IP), the “inhibition of swelling, dose dependence” value is “dose-dependent manner”. Also, the bioavailability entry in data set [2] was “suboptimal”. The “Binding to Cleavage Site Up stream” value in data set [3] is “xxx”. In addition, the results for the “change in thickness of the left knee as compared to the right knee, percent change” value with Lewis rats [4] (0 Hr), in the data set on Lewis rats [4] (2 Hr) and in the data set on Lewis rats [4] (72 Hr) were 0.00 ± 0.00%, 1.10 ± 1.13% and 3.48 ± 0.66%, respectively.

B2: 1B5: anti-PAR-2 monoclonal antibody; heavy SEQ ID NO: 13, light SEQ ID NO: 15 (antibody, listed as Homo sapiens)
heavy: EVQLVQSGAEVKKSGESLKISCKGSGYSFSNYWIGWVRQMPGKGLEWMGIIYPGDSDTRYSPSFQGQVTISADKSIRTAYLQWSSLKASDTAMYYCARHKGITGTTFYYDYGMDVWGQGTTVTVSS
light: SYELTQPPSVSVSPGQTARITCSGEALPKQYASWYQQKPGQAPVLVIYRDTERPSGIPERFSGSSSGTTVTLTISGVQAEDEADYYCQSADSNGAYVFGTGTRVTVL
As to B2, in data set [3], the “Binding to Cleavage Site Up stream” value is recorded as “xxx”. The Kd in data set [5] worked out at 3.39 nM.
